Sequences and labels used below:
B1: Camptothecin-rvGly-Suc-(Doc)4-Aepa-D-Ser-D-Tyr-Gln-Trp-Ala-Val-β-Ala-His-Leu-Nle-NH2 (peptide)
peptide: {Camptothecin-rvGly-Suc-AEEA-AEEA-AEEA-AEEA-Pipz(1-CH2CO,4-CH2CH2NH)}-[dS][dY]QWAV[βAla]HL[Nle]-NH2
modifications: reading uncertain; also: printed as Camptothecin-rvGly-Suc-(Doc)4-Aepa-D-Ser-D-Tyr-Gln-Trp-Ala-Val-β-Ala-His-Leu-Nle-NH2
B2: Camptothecin-rvGly-Suc-(Doc)4-Aepa-Apn-Asn-Gln-Trp-Ala-Val-β-Ala-His-Leu-Nle-NH2 (peptide)
peptide: Camptothecin-[rvGly][Suc][AEEA][AEEA][AEEA][AEEA][Pipz(1-CH2CO,4-CH2CH2NH)][Apn]NQWAV[βAla]HL[Nle]-NH2
modifications: reading uncertain; also: printed as Camptothecin-rvGly-Suc-(Doc)4-Aepa-Apn-Asn-Gln-Trp-Ala-Val-β-Ala-His-Leu-Nle-NH2
B3: Camptothecin-rvGly-Suc-(Doc)4-Lys-D-Ser-D-Tyr-Gln-Trp-Ala-Val-β-Ala-His-Leu-Nle-NH2 (peptide)
peptide: {Camptothecin-rvGly-Suc-AEEA-AEEA-AEEA-AEEA}-K[dS][dY]QWAV[βAla]HL[Nle]-NH2
modifications: reading uncertain; also: printed as Camptothecin-rvGly-Suc-(Doc)4-Lys-D-Ser-D-Tyr-Gln-Trp-Ala-Val-β-Ala-His-Leu-Nle-NH2
notes: Bombesin analog conjugate
B4: Camptothecin-rvGly-Suc-(Doc)4-Arg-D-Ala-D-Tyr-Gln-Trp-Ala-Val-β-Ala-His-Leu-Nle-NH2 (peptide)
peptide: {Camptothecin-rvGly-Suc-AEEA-AEEA-AEEA-AEEA}-R[dA][dY]QWAV[βAla]HL[Nle]-NH2
modifications: reading uncertain; also: printed as Camptothecin-rvGly-Suc-(Doc)4-Arg-D-Ala-D-Tyr-Gln-Trp-Ala-Val-β-Ala-His-Leu-Nle-NH2
notes: Bombesin analog conjugate
B5: Camptothecin-rvGly-Suc-(Doc)4-Aepa-Gaba-D-Ser-D-Tyr-Gln-Trp-Ala-Val-β-Ala-His-Leu-Nle-NH2 (peptide)
peptide: {Camptothecin-rvGly-Suc-AEEA-AEEA-AEEA-AEEA-Pipz(1-CH2CO,4-CH2CH2NH)}-[GABA][dS][dY]QWAV[βAla]HL[Nle]-NH2
modifications: reading uncertain; also: printed as Camptothecin-rvGly-Suc-(Doc)4-Aepa-Gaba-D-Ser-D-Tyr-Gln-Trp-Ala-Val-β-Ala-His-Leu-Nle-NH2
notes: Bombesin analog conjugate

Numbered stars: 1 amine (or outer) side, 2 acyl side, 3 side chain; on linkers, the order of the positions; unused ones are H or OH. Bridge positions count the residues as written; N and C are the ends. Square brackets hold non-standard residues; d marks the D form. Pipz(1-CH2CO,4-CH2CH2NH) = O=C(CN1CCN(CCN[*:1])CC1)[*:2]; Tyr(3-I) = N[C@@H](Cc1ccc(O)c(I)c1)C(=O)O; Suc = O=C(CCC(=O)[*:2])[*:1]; Nle = CCCC[C@H](N)C(=O)O; rvGly = not defined here; Glut = not defined here; Abu = CC[C@H](N)C(=O)O; Apn = not defined here; AEEA = NCCOCCOCC(=O)O; Ahx = NCCCCCC(=O)O; GABA = NCCCC(=O)O; βAla = NCCC(=O)O

Broadly, the Ki is the equilibrium dissociation constant of an inhibitor or competing ligand from its target. Read a high Ki as a looser hold on the target.

human somatostatin receptor subtype hSSTR-5 (human), sequence (P35346 whole entry): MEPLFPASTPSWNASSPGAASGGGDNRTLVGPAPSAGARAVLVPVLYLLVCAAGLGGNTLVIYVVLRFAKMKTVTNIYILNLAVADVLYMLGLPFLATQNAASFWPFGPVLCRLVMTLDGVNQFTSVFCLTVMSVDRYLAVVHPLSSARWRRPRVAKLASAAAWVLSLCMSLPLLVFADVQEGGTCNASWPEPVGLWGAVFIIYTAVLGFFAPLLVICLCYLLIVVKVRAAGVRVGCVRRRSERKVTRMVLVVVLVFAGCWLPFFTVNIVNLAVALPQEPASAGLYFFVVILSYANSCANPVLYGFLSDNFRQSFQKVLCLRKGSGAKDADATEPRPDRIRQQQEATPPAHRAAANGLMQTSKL
T1 sequence (P52500 whole entry): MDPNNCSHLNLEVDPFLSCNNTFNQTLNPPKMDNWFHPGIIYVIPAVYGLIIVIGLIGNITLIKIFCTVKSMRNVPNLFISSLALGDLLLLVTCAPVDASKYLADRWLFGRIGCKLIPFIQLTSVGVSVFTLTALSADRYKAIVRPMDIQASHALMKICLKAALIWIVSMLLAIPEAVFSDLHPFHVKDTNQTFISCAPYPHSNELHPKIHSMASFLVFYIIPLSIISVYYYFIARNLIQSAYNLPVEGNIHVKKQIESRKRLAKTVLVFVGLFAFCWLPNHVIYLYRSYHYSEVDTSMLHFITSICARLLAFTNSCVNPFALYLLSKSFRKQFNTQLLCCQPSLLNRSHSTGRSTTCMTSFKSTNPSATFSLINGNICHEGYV
human somatostatin receptor subtype hSSTR-3 (human), sequence (P32745 whole entry): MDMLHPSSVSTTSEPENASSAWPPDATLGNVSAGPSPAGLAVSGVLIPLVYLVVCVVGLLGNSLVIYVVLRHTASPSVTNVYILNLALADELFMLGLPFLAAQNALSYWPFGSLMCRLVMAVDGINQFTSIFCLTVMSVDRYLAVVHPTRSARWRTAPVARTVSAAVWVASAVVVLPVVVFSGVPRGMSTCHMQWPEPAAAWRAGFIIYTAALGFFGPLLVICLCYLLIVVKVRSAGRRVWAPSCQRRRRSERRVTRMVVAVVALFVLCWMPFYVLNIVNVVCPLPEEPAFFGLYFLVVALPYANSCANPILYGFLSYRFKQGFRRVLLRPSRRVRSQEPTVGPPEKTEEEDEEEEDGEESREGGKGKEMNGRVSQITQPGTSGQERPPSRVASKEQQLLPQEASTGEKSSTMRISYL

One assay concerns the target human somatostatin receptor subtype hSSTR-5 (human) (UniProt P35346). Nature of the assay: radioligand displacement, CHO-K1 hSSTR-5 membranes, tracer m40. For orientation: Displacement assays read how much labelled ligand stays bound in the presence of the test substance.
{Camptothecin-rvGly-Glut-AEEA-AEEA-AEEA-AEEA}-K[dY][dY]CFF[dW]KTC-NH2 (disulfide 4-10; reading uncertain) [Camptothecin-rvGly-Glut-(Doc)4-Lys-D-Tyr-D-Tyr-c(Cys-Phe-Phe-D-Trp-Lys-Thr-Cys)-NH2] had a Ki of 481 nM.

As to {Camptothecin-rvGly-Glut-AEEA-AEEA-AEEA-AEEA}-K[dY][dY]C[Tyr(3-I)][dW]K[Abu]CT-NH2 (disulfide 4-9; reading uncertain) [Camptothecin-rvGly-Glut-(Doc)4-Lys-D-Tyr-D-Tyr-c(Cys-3-(I)Tyr-D-Trp-Lys-Abu-Cys)-Thr-NH2], the Ki turned out to be 3.86 nM.

In turn, {Camptothecin-rvGly-Glut-AEEA-AEEA-AEEA-AEEA-AEEA-AEEA}-K[dY][dY]C[Tyr(3-I)][dW]K[Abu]CT-NH2 (disulfide 4-9; reading uncertain) [Camptothecin-rvGly-Glut-(Doc)6-Lys-D-Tyr-D-Tyr-c(Cys-3-(I)Tyr-D-Trp-Lys-Abu-Cys)-Thr-NH2] returned a Ki of 3 nM. The Ki values of the last two molecules are within 1.5-fold of each other.

Another assay has as its target human somatostatin receptor subtype hSSTR-3 (human) (UniProt P32745). Nature of the assay: radioligand displacement, CHO-K1 hSSTR-3 membranes, tracer [125I-Tyr11]SRIF-14.
In the case of {Camptothecin-rvGly-Glut-AEEA-AEEA-AEEA-AEEA}-K[dY][dY]C[Tyr(3-I)][dW]K[Abu]CT-NH2 (disulfide 4-9; reading uncertain) [Camptothecin-rvGly-Glut-(Doc)4-Lys-D-Tyr-D-Tyr-c(Cys-3-(I)Tyr-D-Trp-Lys-Abu-Cys)-Thr-NH2], the Ki was determined as 94 nM.

On to {Camptothecin-rvGly-Glut-AEEA-AEEA-AEEA-AEEA-AEEA-AEEA}-K[dY][dY]C[Tyr(3-I)][dW]K[Abu]CT-NH2 (disulfide 4-9; reading uncertain) [Camptothecin-rvGly-Glut-(Doc)6-Lys-D-Tyr-D-Tyr-c(Cys-3-(I)Tyr-D-Trp-Lys-Abu-Cys)-Thr-NH2], for which the Ki stood at 125 nM.

In the next assay the target is human somatostatin receptor subtype hSSTR-2 (human) (UniProt P30874). Nature of the assay: radioligand displacement, CHO-K1 hSSTR-2 membranes, tracer m39.
human somatostatin receptor subtype hSSTR-2 (human), sequence (P30874 whole entry): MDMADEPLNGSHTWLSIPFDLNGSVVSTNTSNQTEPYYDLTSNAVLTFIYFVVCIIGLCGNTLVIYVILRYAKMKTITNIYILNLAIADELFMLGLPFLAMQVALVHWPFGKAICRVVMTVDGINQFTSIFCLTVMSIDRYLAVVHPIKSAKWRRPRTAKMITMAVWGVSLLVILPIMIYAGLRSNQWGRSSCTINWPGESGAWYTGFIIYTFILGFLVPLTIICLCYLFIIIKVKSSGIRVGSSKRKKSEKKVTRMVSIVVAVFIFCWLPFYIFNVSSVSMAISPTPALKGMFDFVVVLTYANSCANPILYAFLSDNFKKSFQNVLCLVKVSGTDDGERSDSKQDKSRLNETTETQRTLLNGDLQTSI
Take {Camptothecin-rvGly-Glut-AEEA-AEEA-AEEA-AEEA}-K[dY][dY]CFF[dW]KTC-NH2 (disulfide 4-10; reading uncertain) [Camptothecin-rvGly-Glut-(Doc)4-Lys-D-Tyr-D-Tyr-c(Cys-Phe-Phe-D-Trp-Lys-Thr-Cys)-NH2]: the Ki was determined as 9.38 nM.

In turn, {Camptothecin-rvGly-Glut-AEEA-AEEA-AEEA-AEEA}-K[dY][dY]C[Tyr(3-I)][dW]K[Abu]CT-NH2 (disulfide 4-9; reading uncertain) [Camptothecin-rvGly-Glut-(Doc)4-Lys-D-Tyr-D-Tyr-c(Cys-3-(I)Tyr-D-Trp-Lys-Abu-Cys)-Thr-NH2] had a Ki of 0.1 nM.

The molecule {Camptothecin-rvGly-Glut-AEEA-AEEA-AEEA-AEEA-AEEA-AEEA}-K[dY][dY]C[Tyr(3-I)][dW]K[Abu]CT-NH2 (disulfide 4-9; reading uncertain) [Camptothecin-rvGly-Glut-(Doc)6-Lys-D-Tyr-D-Tyr-c(Cys-3-(I)Tyr-D-Trp-Lys-Abu-Cys)-Thr-NH2] returned a Ki of 0.36 nM.

The target in a further assay is native bombesin/GRP receptor of AR42J rat pancreas cells (rat) (UniProt P52500). The assay can be described thus: radioligand displacement, AR42J rat pancreas cell membranes, tracer [125I-Tyr4]bombesin.
native bombesin/GRP receptor of AR42J rat pancreas cells (rat), sequence (P52500 whole entry): as the sequence (P52500 whole entry) above
With B1, the Ki came out at 3.96 nM.

Turning to Camptothecin-[rvGly][Suc][AEEA][AEEA][AEEA][AEEA][Pipz(1-CH2CO,4-CH2CH2NH)][GABA]NQWAV[βAla]HL[Nle]-NH2 [Camptothecin-rvGly-Suc-(Doc)4-Aepa-Gaba-Asn-Gln-Trp-Ala-Val-β-Ala-His-Leu-Nle-NH2], the Ki was found to be 7.65 nM.

Molecule Camptothecin-[rvGly][Suc][AEEA][AEEA][AEEA][AEEA][Pipz(1-CH2CO,4-CH2CH2NH)][Nle]QWAV[βAla]HL[Nle]-NH2 [Camptothecin-rvGly-Suc-(Doc)4-Aepa-Nle-Gln-Trp-Ala-Val-β-Ala-His-Leu-Nle-NH2] registered a Ki of 4.57 nM. This Ki lies about 1.7-fold lower than the previous one.

The molecule B2 yielded a Ki of 4.07 nM.

In turn, Camptothecin-[rvGly][Suc][AEEA][AEEA][AEEA][AEEA][Pipz(1-CH2CO,4-CH2CH2NH)][Ahx]QWAV[βAla]HL[Nle]-NH2 [Camptothecin-rvGly-Suc-(Doc)4-Aepa-Ahx-Gln-Trp-Ala-Val-β-Ala-His-Leu-Nle-NH2] came in with a Ki of 1.9 nM.

Turning to Camptothecin-[rvGly][Suc][AEEA][AEEA][AEEA][AEEA][Pipz(1-CH2CO,4-CH2CH2NH)]L[GABA]QWAV[βAla]HL[Nle]-NH2 [Camptothecin-rvGly-Suc-(Doc)4-Aepa-Leu-Gaba-Gln-Trp-Ala-Val-β-Ala-His-Leu-Nle-NH2], the Ki worked out at 18.2 nM.

The next assay addresses T1, native bombesin/GRP receptor of AR42J rat pancreas cells (rat, UniProt P52500 1-384).
T1 construct: whole, on cells; Used as membrane homogenate of AR42J cells; also called bombesin receptor
The description is as above. The method, then:
The homogenates were washed twice by centrifugation (39,000 g/10 minutes) and the final pellets were resuspended in 50 mM Tris-HCl containing 2.5 mM MgCl₂ and 0.1% BSA. For the assay, aliquots of membrane homogenate (0.4 ml) were incubated with 0.05 nM [¹²⁵I-Tyr4]bombesin (2200 Ci/mmol) (New England Nuclear®, Boston, Mass., U.S.A.) with and without 0.05 ml of unlabeled competing test peptides. After a 30 minute incubation period at 4° C., the bound [¹²⁵I-Tyr4]bombesin was separated from the free bombesin by rapid filtration through GF/B filters (Brandel®, Gaithersburg, Md., U.S.A.) which had been previously soaked in 0.3% polyethyleneimine. The filters were then washed three times with 5-ml aliquots of ice-cold 50 mM Tris-HCl. The bound radioactivity trapped on the filters was counted by gamma spectrometry (Wallac LKB®, Gaithersburg, Md., U.S.A.). Specific binding was defined as the total [¹²⁵I-Tyr4]bombesin bound minus that bound in the presence of 1000 nM bombesin (Bachem®, Torrence, Calif., U.S.A>).
B3 had a Ki of 1.45 nM. This lies in the single-digit nanomolar range.

B4: the affinity, expressed as Ki, was 1.1 nM.

B5 came in with a Ki of 4.82 nM.

The values above are taken from patent publication US20100113367A1 (IPSEN PHARMA S A S, published 2010).
